Results: US20140011738A1 (INDIANA UNIVERSITY RESEARCH AND TECHNOLOGY, published 2014)
*1 amine or outer side, *2 acyl side, *3 side chain or, on linkers, in order; H or OH if unused. Where no end group is shown, it is not given here. Side-chain parts run from the residue outwards. [ ]: non-standard residue; d: D form. The star is where a group is joined. γGlu = O=C(O)[C@H](CCC(=O)[*:2])N[*:1]; Palmitoyl = CCCCCCCCCCCCCCCC(=O)*; Aib = CC(C)(N)C(=O)O

B1: peptide of SEQ ID NO: 43 (peptide)
peptide: H[Aib]QGTFTSDK([γGlu-Palmitoyl])SKYLDERAAQDFVQWLLEGGPSSGAPPPS-NH2
modifications: N-terminus assumed
SMILES: CCCCCCCCCCCCCCCC(=O)N[C@@H](CCC(=O)NCCCC[C@H](NC(=O)[C@H](CC(=O)O)NC(=O)[C@H](CO)NC(=O)[C@@H](NC(=O)[C@H](Cc1ccccc1)NC(=O)[C@@H](NC(=O)CNC(=O)[C@H](CCC(N)=O)NC(=O)C(C)(C)NC(=O)[C@@H](N)Cc1c[nH]cn1)[C@@H](C)O)[C@@H](C)O)C(=O)N[C@@H](CO)C(=O)N[C@@H](CCCCN)C(=O)N[C@@H](Cc1ccc(O)cc1)C(=O)N[C@@H](CC(C)C)C(=O)N[C@@H](CC(=O)O)C(=O)N[C@@H](CCC(=O)O)C(=O)N[C@@H](CCCNC(=N)N)C(=O)N[C@@H](C)C(=O)N[C@@H](C)C(=O)N[C@@H](CCC(N)=O)C(=O)N[C@@H](CC(=O)O)C(=O)N[C@@H](Cc1ccccc1)C(=O)N[C@H](C(=O)N[C@@H](CCC(N)=O)C(=O)N[C@@H](Cc1c[nH]c2ccccc12)C(=O)N[C@@H](CC(C)C)C(=O)N[C@@H](CC(C)C)C(=O)N[C@@H](CCC(=O)O)C(=O)NCC(=O)NCC(=O)N1CCC[C@H]1C(=O)N[C@@H](CO)C(=O)N[C@@H](CO)C(=O)NCC(=O)N[C@@H](C)C(=O)N1CCC[C@H]1C(=O)N1CCC[C@H]1C(=O)N1CCC[C@H]1C(=O)N[C@@H](CO)C(N)=O)C(C)C)C(=O)O
B2: peptide of SEQ ID NO: 18 (peptide)
peptide: H[Aib]QGTFTSDK([γGlu-Palmitoyl])SKYLEERAAQEFVQWLLEGGPSSGAPPPS-NH2
modifications: N-terminus assumed
SMILES: CCCCCCCCCCCCCCCC(=O)N[C@@H](CCC(=O)NCCCC[C@H](NC(=O)[C@H](CC(=O)O)NC(=O)[C@H](CO)NC(=O)[C@@H](NC(=O)[C@H](Cc1ccccc1)NC(=O)[C@@H](NC(=O)CNC(=O)[C@H](CCC(N)=O)NC(=O)C(C)(C)NC(=O)[C@@H](N)Cc1c[nH]cn1)[C@@H](C)O)[C@@H](C)O)C(=O)N[C@@H](CO)C(=O)N[C@@H](CCCCN)C(=O)N[C@@H](Cc1ccc(O)cc1)C(=O)N[C@@H](CC(C)C)C(=O)N[C@@H](CCC(=O)O)C(=O)N[C@@H](CCC(=O)O)C(=O)N[C@@H](CCCNC(=N)N)C(=O)N[C@@H](C)C(=O)N[C@@H](C)C(=O)N[C@@H](CCC(N)=O)C(=O)N[C@@H](CCC(=O)O)C(=O)N[C@@H](Cc1ccccc1)C(=O)N[C@H](C(=O)N[C@@H](CCC(N)=O)C(=O)N[C@@H](Cc1c[nH]c2ccccc12)C(=O)N[C@@H](CC(C)C)C(=O)N[C@@H](CC(C)C)C(=O)N[C@@H](CCC(=O)O)C(=O)NCC(=O)NCC(=O)N1CCC[C@H]1C(=O)N[C@@H](CO)C(=O)N[C@@H](CO)C(=O)NCC(=O)N[C@@H](C)C(=O)N1CCC[C@H]1C(=O)N1CCC[C@H]1C(=O)N1CCC[C@H]1C(=O)N[C@@H](CO)C(N)=O)C(C)C)C(=O)O
B3: peptide of SEQ ID NO: 44 (peptide)
peptide: H[Aib]EGTFTSDK([γGlu-Palmitoyl])SKYLDERAAQDFVQWLLEGGPSSGAPPPS-NH2
modifications: N-terminus assumed
SMILES: CCCCCCCCCCCCCCCC(=O)N[C@@H](CCC(=O)NCCCC[C@H](NC(=O)[C@H](CC(=O)O)NC(=O)[C@H](CO)NC(=O)[C@@H](NC(=O)[C@H](Cc1ccccc1)NC(=O)[C@@H](NC(=O)CNC(=O)[C@H](CCC(=O)O)NC(=O)C(C)(C)NC(=O)[C@@H](N)Cc1c[nH]cn1)[C@@H](C)O)[C@@H](C)O)C(=O)N[C@@H](CO)C(=O)N[C@@H](CCCCN)C(=O)N[C@@H](Cc1ccc(O)cc1)C(=O)N[C@@H](CC(C)C)C(=O)N[C@@H](CC(=O)O)C(=O)N[C@@H](CCC(=O)O)C(=O)N[C@@H](CCCNC(=N)N)C(=O)N[C@@H](C)C(=O)N[C@@H](C)C(=O)N[C@@H](CCC(N)=O)C(=O)N[C@@H](CC(=O)O)C(=O)N[C@@H](Cc1ccccc1)C(=O)N[C@H](C(=O)N[C@@H](CCC(N)=O)C(=O)N[C@@H](Cc1c[nH]c2ccccc12)C(=O)N[C@@H](CC(C)C)C(=O)N[C@@H](CC(C)C)C(=O)N[C@@H](CCC(=O)O)C(=O)NCC(=O)NCC(=O)N1CCC[C@H]1C(=O)N[C@@H](CO)C(=O)N[C@@H](CO)C(=O)NCC(=O)N[C@@H](C)C(=O)N1CCC[C@H]1C(=O)N1CCC[C@H]1C(=O)N1CCC[C@H]1C(=O)N[C@@H](CO)C(N)=O)C(C)C)C(=O)O

biological target: glucagon receptor (UniProt P47871 26-477, limits assumed); assay: cell-based or functional assay
Sequence (P47871 26-477 limits assumed): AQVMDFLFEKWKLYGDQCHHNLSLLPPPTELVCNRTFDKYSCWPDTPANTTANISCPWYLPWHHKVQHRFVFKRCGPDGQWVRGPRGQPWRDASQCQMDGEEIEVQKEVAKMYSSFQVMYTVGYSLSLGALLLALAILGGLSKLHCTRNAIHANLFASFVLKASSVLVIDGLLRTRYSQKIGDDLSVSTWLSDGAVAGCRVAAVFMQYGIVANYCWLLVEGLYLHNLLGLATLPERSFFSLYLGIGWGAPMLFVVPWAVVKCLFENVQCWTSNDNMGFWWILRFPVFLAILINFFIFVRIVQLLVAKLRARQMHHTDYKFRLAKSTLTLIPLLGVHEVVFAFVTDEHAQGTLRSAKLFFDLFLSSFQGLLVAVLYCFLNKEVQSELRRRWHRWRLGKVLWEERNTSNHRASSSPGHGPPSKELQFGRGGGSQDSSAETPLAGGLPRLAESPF

| Binder | EC50 at Glucagon Receptor [pM] |
| --- | --- |
| B1 | 6 |
| H[Aib]QGTFTSDYSKYLDERAAQDFVQWLLDGGPSSGAPPPSK([γGlu-γGlu-Palmitoyl])G-NH2 [peptide of SEQ ID NO: 11] | 4 |
| B2 | 7 |
| H[Aib]QGTFTSDYSKYLEERAAQDFVQWLLDGGPSSGAPPPSK([γGlu-γGlu-Palmitoyl])G-NH2 [peptide of SEQ ID NO: 15] | 5 |
| B3 | 1470 |
| H[Aib]QGTFTSEYSKYLDERAAQDFVQWLLDGGPSSGAPPPSK([γGlu-γGlu-Palmitoyl])G-NH2 [peptide of SEQ ID NO: 16] | 28 |
| H[Aib]QGTFTSDYAKYLDERAAQDFVQWLLDGGPSSGAPPPSK([γGlu-γGlu-Palmitoyl])G-NH2 [peptide of SEQ ID NO: 17] | 19 |
| H[Aib]QGTFTSDK([γGlu-Palmitoyl])SKYLDERAAQDFVQWLLDGGPSSGAPPPS-NH2 [peptide of SEQ ID NO: 10] | 4 |

biological target: GLP-1 receptor (UniProt P43220 24-463, limits assumed); assay: cell-based or functional assay
Sequence (P43220 24-463 limits assumed): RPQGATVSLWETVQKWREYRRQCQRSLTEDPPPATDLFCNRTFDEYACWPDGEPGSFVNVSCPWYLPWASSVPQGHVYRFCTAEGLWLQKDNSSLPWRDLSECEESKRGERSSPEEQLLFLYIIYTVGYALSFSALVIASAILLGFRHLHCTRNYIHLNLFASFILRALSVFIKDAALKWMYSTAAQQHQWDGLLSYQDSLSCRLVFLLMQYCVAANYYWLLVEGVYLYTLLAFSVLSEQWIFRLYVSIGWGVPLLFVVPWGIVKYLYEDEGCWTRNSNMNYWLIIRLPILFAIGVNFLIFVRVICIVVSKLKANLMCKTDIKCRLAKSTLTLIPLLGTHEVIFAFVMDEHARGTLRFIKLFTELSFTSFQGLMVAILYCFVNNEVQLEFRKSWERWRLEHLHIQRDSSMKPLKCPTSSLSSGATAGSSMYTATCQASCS

| Binder | EC50 at GLP-1 Receptor [pM] |
| --- | --- |
| B1 | 4 |
| H[Aib]QGTFTSDYSKYLDERAAQDFVQWLLDGGPSSGAPPPSK([γGlu-γGlu-Palmitoyl])G-NH2 [peptide of SEQ ID NO: 11] | 1 |
| B2 | 8 |
| H[Aib]QGTFTSDYSKYLEERAAQDFVQWLLDGGPSSGAPPPSK([γGlu-γGlu-Palmitoyl])G-NH2 [peptide of SEQ ID NO: 15] | 3 |
| B3 | 7 |
| H[Aib]QGTFTSEYSKYLDERAAQDFVQWLLDGGPSSGAPPPSK([γGlu-γGlu-Palmitoyl])G-NH2 [peptide of SEQ ID NO: 16] | 2 |
| H[Aib]QGTFTSDYAKYLDERAAQDFVQWLLDGGPSSGAPPPSK([γGlu-γGlu-Palmitoyl])G-NH2 [peptide of SEQ ID NO: 17] | 8 |
| H[Aib]QGTFTSDK([γGlu-Palmitoyl])SKYLDERAAQDFVQWLLDGGPSSGAPPPS-NH2 [peptide of SEQ ID NO: 10] | 4 |

biological target: T1, GIP receptor (UniProt P48546 22-466, limits assumed); assay: cell-based or functional assay
T1 sequence (looked up): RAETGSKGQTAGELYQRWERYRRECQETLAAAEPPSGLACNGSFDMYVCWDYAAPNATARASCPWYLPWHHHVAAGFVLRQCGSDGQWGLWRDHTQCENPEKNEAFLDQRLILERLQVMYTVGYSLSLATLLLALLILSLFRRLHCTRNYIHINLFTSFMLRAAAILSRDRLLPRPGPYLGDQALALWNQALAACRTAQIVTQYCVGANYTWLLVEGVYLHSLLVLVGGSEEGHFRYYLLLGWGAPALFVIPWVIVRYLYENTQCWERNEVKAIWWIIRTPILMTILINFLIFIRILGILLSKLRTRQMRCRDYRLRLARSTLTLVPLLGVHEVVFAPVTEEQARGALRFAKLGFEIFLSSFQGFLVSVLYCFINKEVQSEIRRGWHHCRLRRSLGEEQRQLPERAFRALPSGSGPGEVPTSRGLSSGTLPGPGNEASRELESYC

| Binder | EC50 at GIP Receptor [pM] |
| --- | --- |
| B1 | 5 |
| H[Aib]QGTFTSDYSKYLDERAAQDFVQWLLDGGPSSGAPPPSK([γGlu-γGlu-Palmitoyl])G-NH2 [peptide of SEQ ID NO: 11] | 24 |
| B2 | 7 |
| H[Aib]QGTFTSDYSKYLEERAAQDFVQWLLDGGPSSGAPPPSK([γGlu-γGlu-Palmitoyl])G-NH2 [peptide of SEQ ID NO: 15] | 8 |
| B3 | 27 |
| H[Aib]QGTFTSEYSKYLDERAAQDFVQWLLDGGPSSGAPPPSK([γGlu-γGlu-Palmitoyl])G-NH2 [peptide of SEQ ID NO: 16] | 54 |
| H[Aib]QGTFTSDYAKYLDERAAQDFVQWLLDGGPSSGAPPPSK([γGlu-γGlu-Palmitoyl])G-NH2 [peptide of SEQ ID NO: 17] | 20 |
| H[Aib]QGTFTSDK([γGlu-Palmitoyl])SKYLDERAAQDFVQWLLDGGPSSGAPPPS-NH2 [peptide of SEQ ID NO: 10] | 4 |
